Patent US20210317223A1 (DRAGONFLY THERAPEUTICS, published 2021)

T1: B-cell maturation antigen (BCMA) (human, UniProt Q02223 1-184)
T1 construct: This is endogenous BCMA on human myeloma cell lines (KMS12-PE low, MM.1R high expression); the whole entry is used; also called surface BCMA
T1 sequence: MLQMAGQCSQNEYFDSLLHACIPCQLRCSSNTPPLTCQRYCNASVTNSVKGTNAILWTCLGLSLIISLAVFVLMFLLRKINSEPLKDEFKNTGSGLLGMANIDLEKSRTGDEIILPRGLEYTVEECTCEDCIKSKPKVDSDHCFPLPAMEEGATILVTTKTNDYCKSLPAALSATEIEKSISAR

T2: NKG2D (human, UniProt P26718 1-216)
T2 construct: whole, on cells; also called NKG2D receptor
T2 sequence (looked up): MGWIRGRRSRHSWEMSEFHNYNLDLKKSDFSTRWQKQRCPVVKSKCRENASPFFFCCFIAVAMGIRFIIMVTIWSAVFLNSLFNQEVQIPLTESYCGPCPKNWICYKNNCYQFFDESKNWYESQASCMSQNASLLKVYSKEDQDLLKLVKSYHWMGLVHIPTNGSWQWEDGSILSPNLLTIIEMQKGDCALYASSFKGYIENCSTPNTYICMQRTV


What was measured:
CD16-F158V = target: T3, CD16-F158V (UniProt P08637 17-254); assay: flow cytometry on KHYG-1 cells transduced with CD16-F158V (the cells also express NKG2D), anti-human IgG secondary antibody, MFI
T3 construct: whole, on cells; It is probably the mature protein, so it may not match the position on the precursor entry; The KHYG-1 cells also express NKG2D
Description: (§1) The KHYG-1 human NK cell line was used to assess NKG2D binding of TriNKET NKG2D-binding-F4-TriNKET-BCMA. KHYG-1 cells transduced to express CD16-F158V were used to investigate the contribution of Fc CD16 binding. TriNKETs were diluted, and were incubated with KHYG-1 cells. Binding of the TriNKET was detected using a fluorophore conjugated anti-human IgG secondary antibody. Cells were analyzed by flow cytometry and Median Fluorescence Intensity (“MFI”) reported.

[1] = target: T1, B-cell maturation antigen (BCMA); assay: flow cytometry on KMS12-PE cells, 100 ug/mL, incubation times as labelled, anti-human IgG secondary antibody
Description: KMS12-PE or MM.1R cells were incubated with an anti-BCMA monoclonal antibody (MAB42), bivalent TriNKET (NKG2D-binding-F4-TriNKET-BCMA), or monovalent TriNKET (A49-DB-TriNKET-BCMA). A49-DB-TriNKET-BCMA is a TriNKET in which the first antigen-binding site comprises an Fab that binds NKG2D and the second antigen-binding site comprises an Fab that binds BCMA, each connected to an Fc domain, forming a bi-valent antibody (WO2018/148566).
To assess total surface BCMA, a saturating concentration of 100 μg/mL was used, whereas 100 ng/mL was selected to investigate sub-saturation surface stabilization. Each sample was divided into thirds, with an aliquot each placed on ice for 20 minutes, at 37° C. for 2 hours or 37° C. for 24 hours. After the incubation period cells were washed and bound TriNKET was detected using an anti-human IgG secondary antibody. After staining the cells were fixed and stored at 4° C., all samples were analyzed at the end of the study.

NKG2D = target: T2, NKG2D; assay: flow cytometry on KHYG-1 parental (CD16-) cells expressing NKG2D, anti-human IgG secondary antibody, MFI
Description: as §1

T3 sequence (P08637 17-254 F176V): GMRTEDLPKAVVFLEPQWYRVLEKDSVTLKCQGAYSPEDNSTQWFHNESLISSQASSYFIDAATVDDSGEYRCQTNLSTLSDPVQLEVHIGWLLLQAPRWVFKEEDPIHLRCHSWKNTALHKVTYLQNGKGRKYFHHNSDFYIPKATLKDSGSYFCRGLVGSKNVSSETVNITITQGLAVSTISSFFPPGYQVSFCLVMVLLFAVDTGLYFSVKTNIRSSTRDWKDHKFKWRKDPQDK

| binding result (CD16-F158V) | binding result [1] | binding result (NKG2D) | Binder |
| --- | --- | --- | --- |
| binds | binds |  | NKG2D-binding-F4-TriNKET-BCMA (bispecific antibody, human IgG1, kappa, An A49 anti-NKG2D scFv sits at the C-terminus of one Fc chain; also called A49-F4-TriNKET-BCMA; NKG2D-F4-TriNKET-BCMA) heavy 1: EVQLLESGGGLVQPGGSLRLSCAASGFTFSDNAMGWVRQAPGKGLEWVSAISGPGSSTYYADSVKGRFTISRDNSKNTLYLQMNSLRAEDTAVYYCAKVLGWFDYWGQGTLVTVSSASTKGPSVFPLAPSSKSTSGGTAALGCLVKDYFPEPVTVSWNSGALTSGVHTFPAVLQSSGLYSLSSVVTVPSSSLGTQTYICNVNHKPSNTKVDKKVEPKSCDKTHTCPPCPAPELLGGPSVFLFPPKPKDTLMISRTPEVTCVVVDVSHEDPEVKFNWYVDGVEVHNAKTKPREEQYNSTYRVVSVLTVLHQDWLNGKEYKCKVSNKALPAPIEKTISKAKGQPREPRVYTLPPCRDELTKNQVSLTCLVKGFYPSDIAVEWESNGQPENNYKTTPPVLVSDGSFTLYSKLTVDKSRWQQGNVFSCSVMHEALHNHYTQKSLSLSPGSGSGGGGSDIQMTQSPSSVSASVGDRVTITCRASQGISSWLAWYQQKPGKAPKLLIYAASSLQSGVPSRFSGSGSGTDFTLTISSLQPEDFATYYCQQGVSFPRTFGCGTKVEIKGGGGSGGGGSGGGGSGGGGSEVQLVESGGGLVKPGGSLRLSCAASGFTFSSYSMNWVRQAPGKCLEWVSSISSSSSYIYYADSVKGRFTISRDNAKNSLYLQMNSLRAEDTAVYYCARGAPMGAAAGWFDPWGQGTLVTVSS heavy 2: EVQLLESGGGLVQPGGSLRLSCAASGFTFSDNAMGWVRQAPGKGLEWVSAISGPGSSTYYADSVKGRFTISRDNSKNTLYLQMNSLRAEDTAVYYCAKVLGWFDYWGQGTLVTVSSASTKGPSVFPLAPSSKSTSGGTAALGCLVKDYFPEPVTVSWNSGALTSGVHTFPAVLQSSGLYSLSSVVTVPSSSLGTQTYICNVNHKPSNTKVDKKVEPKSCDKTHTCPPCPAPELLGGPSVFLFPPKPKDTLMISRTPEVTCVVVDVSHEDPEVKFNWYVDGVEVHNAKTKPREEQYNSTYRVVSVLTVLHQDWLNGKEYKCKVSNKALPAPIEKTISKAKGQPREPQVCTLPPSRDELTENQVSLTCLVKGFYPSDIAVEWESNGQPENNYKTTPPVLDSDGSFFLYSWLTVDKSRWQQGNVFSCSVMHEALHNHYTQKSLSLSPG light: EIVLTQSPGTLSLSPGERATLSCRASQSVSDEYLSWYQQKPGQAPRLLIHSASTRATGIPDRFSGSGSGTDFTLAISRLEPEDFAVYYCQQYGYPPDFTFGQGTKVEIKRTVAAPSVFIFPPSDEQLKSGTASVVCLLNNFYPREAKVQWKVDNALQSGNSQESVTEQDSKDSTYSLSSTLTLSKADYEKHKVYACEVTHQGLSSPVTKSFNRGEC |
| binds | binds | no binding (tested: 100 ug/ml) | anti-BCMA monoclonal antibody MAB42 (antibody, V domains shown, also called anti-BCMA mAb; BCMA mAb) VH: EVQLLESGGGLVQPGGSLRLSCAASGFTFSDNAMGWVRQAPGKGLEWVSAISGPGSSTYYADSVKGRFTISRDNSKNTLYLQMNSLRAEDTAVYYCAKVLGWFDYWGQGTLVTVSS VL: EIVLTQSPGTLSLSPGERATLSCRASQSVSDEYLSWYQQKPGQAPRLLIHSASTRATGIPDRFSGSGSGTDFTLAISRLEPEDFAVYYCQQYGYPPDFTFGQGTKVEIK |
